Values of other authors as cited in patent publication US20200354411A1, “Chimeric Molecule for Targeting c-Myc in Cells” (priority 2017, published 2020).

Tested on: A549 cells
Details: shown in the art

B1: Omomyc: myc dominant negative peptide able to bind E-Box promoter and prevent c-myc binding, SEQ ID NO: 6 (peptide)
chain: TEENVKRRTHNVLERQRRNELKRSFFALRDQIPELENNEKAPKVVILKKATAYILSVQAETQKLISEIDLLRKQNEQLKHKLEQLRNSCA
modifications: Omomyc
concentration at which treated cells showed apoptosis: 10 µM
